From patent publication US12359192B2, “Methods and compositions for display of macrocyclic peptides” (University of Rochester, priority 2013, dated 2025)
Numbered stars: 1 amine (or outer) side, 2 acyl side, 3 side chain; on linkers, the order of the positions; unused ones are H or OH. Bridge positions count the residues as written; N and C are the ends. Peptide text beside a SMILES is read from it. * marks the point of attachment. CH2CH2 = C(C[*:2])[*:1]; Propargyl = C#CC*

What was measured:
Keap1 Kelch domain (KKD) = molecular target: T1, Keap1 Kelch domain (KKD) (Homo sapiens, UniProt Q14145); experiment: direct binding assay with plate-immobilized Keap1 Kelch domain (KKD) and HRP-conjugated anti-FLAG antibody; conditions: linear version, O2beY substituted with OpgY
T1 construct: poly-His tag with TEV protease cleavable linker (N)
Excerpt: FIG. 46A-FIG. 46C depict the selection of macrocyclic peptide inhibitors of the Keap1/Nrf2 interaction using methods disclosed herein. […] KD values correspond to the FLAG-tagged CBD-fused peptide macrocycles. FIG. 46B depicts binding curves for selected macrocyclic peptides as determined using a direct binding assay with plate-immobilized KKD and HRP-conjugated anti-FLAG antibody for detection of the bound peptide.
FIG. 47A-FIG. 47B depicts the selection of Keap1 binding macrocyclic peptides from a naïve macrocyclic peptide phage display library. […] FIG. 47B depicts the binding curves binding curves for selected macrocyclic peptides as determined using a direct binding assay with plate-immobilized KKD and HRP-conjugated anti-FLAG antibody for detection of the bound peptide.
The macrocyclic peptide phage display system of FIG. 43 was further applied to discover macrocyclic peptides capable of targeting a biomedically relevant protein-protein interaction such as the interaction between the Kelch-like ECH-associated protein 1 (Keap1) and transcriptional regulator Nrf2. […] The purified FLAG-tagged cyclic peptides were then tested for their ability to bind the Keap1 Kelch domain (KKD) using an in vitro assay, in which peptide binding to plate-immobilized KKD is detected using a HRP-conjugated anti-FLAG antibody (FIG. 46B). […]

streptavidin [1] = molecular target: T2, streptavidin (Streptomyces avidinii, UniProt P22629); experiment: in-solution inhibition (competitive binding) assay for streptavidin binding affinity; conditions: versus cyclo[S(OpgY)[…]]
T2 construct: purchased Sigma-Aldrich
Procedure: Then, a fixed amount of streptavidin-horseradish peroxidase conjugate is added to the plate in the presence of varying amount of the bicyclic or cyclic peptide.

Keap1 Kelch Domain (KDD) = molecular target: T3, Keap1 Kelch Domain (KDD) (Homo sapiens, UniProt Q14145); experiment: KD (nM)
T3 construct: poly-His tag with TEV protease cleavable linker (N)
Excerpt: Table printed on a drawing sheet, FIG. 47A
Head of the field: KD (nM)
The patent's description of the figure: FIG. 47A-FIG. 47B depicts the selection of Keap1 binding macrocyclic peptides from a naïve macrocyclic peptide phage display library. FIG. 47A depicts the naïve library of i/i+6-linked macrocyclic peptides (X=NNK; Y*=O2beY) and the sequences and binding affinity for selected macrocyclic Keap1-binding peptides isolated after panning the macrocyclic peptide display library against immobilized Keap1 Kelch Domain (KDD). FIG. 47B depicts the binding curves binding curves for selected macrocyclic peptides as determined using a direct binding assay with plate-immobilized KKD and HRP-conjugated anti-FLAG antibody for detection of the bound peptide.
First copying reader's note: Residue columns have no printed head; a drawn thioether linker joins Y* (first residue) and C (last residue), and the KD cells hold value ± error for binding to the Keap1 Kelch Domain (KKD).
Where the first naming reader finds the target: description_of_the_figure: isolated after panning the macrocyclic peptide display library against immobilized Keap1 Kelch Domain (KDD)

streptavidin [2] = molecular target: T2, streptavidin; experiment: direct binding assay with plate-immobilized streptavidin and HRP-conjugated anti-FLAG antibody; conditions: CBD alone (tag control)
Excerpt: FIG. 45A-FIG. 45C depict the affinity selection of streptavidin binding peptide macrocycles using methods disclosed herein. […] KD values correspond to the corresponding FLAG-macrocycle-CBD constructs in purified form. FIG. 45B depicts binding curves for selected peptide macrocycle hits as determined using a direct binding assay with plate-immobilized streptavidin and HRP-conjugated anti-FLAG antibody for detection of the bound peptide. […] FIG. 45D depicts phage enrichment over the four rounds of affinity selection and amplification as determined via the phage titer assay.
Studies were performed to assess the functionality of the phage display-based strategy for functional selection of thioether-linked macrocyclic peptides (FIG. 43) that can bind to a target protein. […] To this end, three peptide sequences from the ‘-GD’ family and two from the ‘-FD’ family, respectively, were subcloned into a pET22 vector for expression of the corresponding macrocyclic peptides fused to a N-terminal FLAG tag and a C-terminal chitin binding domain (CBD) and poly-histidine tag to facilitate purification and quantification. […]
Binding Assays. […] Equilibrium dissociation constants (KD) were determined by fitting the dose-response curves to a 1:1 binding isotherm equation via nonlinear regression using SigmaPlot. Mean values and standard deviations were calculated from experiments performed in triplicate.

T2 sequence (P22629 25-183, species assumed): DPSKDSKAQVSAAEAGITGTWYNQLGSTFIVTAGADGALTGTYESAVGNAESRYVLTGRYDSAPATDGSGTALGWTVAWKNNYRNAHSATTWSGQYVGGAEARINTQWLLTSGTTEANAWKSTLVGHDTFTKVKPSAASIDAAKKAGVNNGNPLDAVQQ
T1 sequence (Q14145 321-609 limits assumed): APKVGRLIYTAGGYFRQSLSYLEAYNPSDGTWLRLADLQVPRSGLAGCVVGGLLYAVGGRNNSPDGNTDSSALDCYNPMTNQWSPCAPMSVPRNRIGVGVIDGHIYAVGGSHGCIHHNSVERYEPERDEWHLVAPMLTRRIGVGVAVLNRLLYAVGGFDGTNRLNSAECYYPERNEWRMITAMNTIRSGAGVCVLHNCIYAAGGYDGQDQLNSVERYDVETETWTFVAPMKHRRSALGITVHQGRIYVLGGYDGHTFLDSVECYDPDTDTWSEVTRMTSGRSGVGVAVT

For C#CCOc1ccc(C[C@H](N)C(=O)N[C@@H](CC(=O)O)C(=O)N[C@@H](CO)C(=O)N[C@@H](CCC(=O)O)C(=O)N[C@H](C(=O)NCC(=O)N[C@@H](CCC(=O)O)C(=O)N[C@@H](CS)C(=O)O)[C@@H](C)O)cc1 [linear version of KKD-m1] (H-Y(Propargyl)DSETGEC-OH; N-terminus and C-terminus assumed), the “lower affinity for Keap1 relative to KKD-m1” value (Keap1 Kelch domain (KKD)) was “five-fold lower affinity”.

With CC(C)[C@@H]1NC(=O)[C@H](CC(N)=O)NC(=O)[C@H]([C@@H](C)O)NC(=O)[C@@H]2Cc3ccc(cc3)OCCSC[C@H](NC(=O)[C@H](Cc3ccccc3)NC(=O)[C@H](CCC(N)=O)NC(=O)[C@@H]3CCCN3C(=O)[C@H](Cc3c[nH]cn3)NC1=O)C(=O)N[C@@H](CC(N)=O)C(=O)N[C@@H](C)C(=O)N[C@@H](CS)C(=O)N2 [cStrep3(C)—Z8C(p-2beF)] (cyclo(ACYTNVHPQFCN); linker 3-11 via CH2CH2) the “increase in streptavidin binding affinity as compared to the monocyclic counterpart” value (streptavidin [1]) was over 2 fold.

In the case of “Y* D A E T G E C (YDAETGEC; not fully specified; modified tyrosine Y*; KKD(6X)-m2) [SEQ ID NO: 251 | KKD(6X)-m2]”, the Kd (Keap1 Kelch Domain (KDD)) is reported as 40 ± 13 nM.

With “Y* D I E T G E C (YDIETGEC; not fully specified; modified tyrosine Y*; KKD(6X)-m1) [SEQ ID NO: 250 | KKD(6X)-m1]” the Kd (Keap1 Kelch Domain (KDD)) was 43 ± 14 nM.

B1: CBD: chitin binding domain tag alone (protein)
chain: MKIEEGKLTNPGVSAWQVNTAYTAGQLVTYNGKTYKCLQPHTSLAGWEPSNVPALWQLQNNGNNGLELRHG
B1 was tested, and the binding to streptavidin (streptavidin [2]) was “no detectable binding”.
